What was measured:
[1] = target: the molecule itself; assay: crystal structure; OPTN CC2-UBAN (416–510) crystallised with linear tetraubiquitin, hanging drop, 16% PEG 3350, 250 mM HCOOK, 20 °C; 2.7 Å
[2] = target: T1, linear (M1-linked) tetraubiquitin (UniProt P0CG48 1-76; P0CG48 1-76; P0CG48 1-76; P0CG48 1-76); assay: as above; details: both partners purified
T1 construct: ubiquitin, first unit of four joined head to tail (M1-linked); ubiquitin, second unit; ubiquitin, third unit; ubiquitin, fourth unit; also called linear tetraubiquitin; linear tetra-ubiquitin; source: E. coli, purified (heat treatment, HiTrap SP, Superdex 200)
T1 sequence (P0CG48 1-304, one chain of several): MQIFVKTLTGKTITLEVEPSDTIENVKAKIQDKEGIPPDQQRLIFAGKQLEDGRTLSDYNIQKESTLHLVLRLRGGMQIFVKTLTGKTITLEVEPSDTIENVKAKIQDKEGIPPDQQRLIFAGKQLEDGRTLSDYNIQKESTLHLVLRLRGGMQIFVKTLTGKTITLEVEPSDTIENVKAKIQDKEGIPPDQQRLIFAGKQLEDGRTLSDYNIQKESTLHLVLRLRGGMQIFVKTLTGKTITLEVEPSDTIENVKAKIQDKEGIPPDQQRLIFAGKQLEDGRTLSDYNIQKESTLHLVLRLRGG

binding result [2]: binds
B1: human OPTN CC2-UBAN region (residues 416–510) (domain or fragment, UniProt Q96CV9 416-510, looked up)
chain: EKVDRAVLKELSEKLELAEKALASKQLQMDEMKQTIAKQEEDLETMTILRAQMEVYCSDFHAERAAREKIHEEKEQLALQLAVLLKENDAFEDGG
notes: residues 445-505 modelled for the longest chain; GST was cut off with Turbo3C (HRV3C) protease; also called OPTN-UBAN; source: E. coli Rosetta 2 (DE3), purified (glutathione Sepharose 4B, on-column cleavage, Resource Q, Superdex 75)
stoichiometry N [1]: 2

— PMC4999505, “Linear ubiquitination is involved in the pathogenesis of optineurin-associated amyotrophic lateral sclerosis” (Nature Communications, 2016)
